Results as given in patent US6339070B1, “Gene construct encoding a heterologous prodrug-activating enzyme and a cell targeting moiety” (Zeneca Limited, priority 1997, dated 2002).
Entries after “also recorded” stand apart in the source; their conditions may differ.

Experiments:
[1] = target: T1, human carcinoembryonic antigen (CEA) (Homo sapiens, UniProt P06731); assay: CEA-binding ELISA, anti-CPG2 reporter antibody; conditions: COS-7 transient expression supernatant
T1 sequence (P06731 35-676): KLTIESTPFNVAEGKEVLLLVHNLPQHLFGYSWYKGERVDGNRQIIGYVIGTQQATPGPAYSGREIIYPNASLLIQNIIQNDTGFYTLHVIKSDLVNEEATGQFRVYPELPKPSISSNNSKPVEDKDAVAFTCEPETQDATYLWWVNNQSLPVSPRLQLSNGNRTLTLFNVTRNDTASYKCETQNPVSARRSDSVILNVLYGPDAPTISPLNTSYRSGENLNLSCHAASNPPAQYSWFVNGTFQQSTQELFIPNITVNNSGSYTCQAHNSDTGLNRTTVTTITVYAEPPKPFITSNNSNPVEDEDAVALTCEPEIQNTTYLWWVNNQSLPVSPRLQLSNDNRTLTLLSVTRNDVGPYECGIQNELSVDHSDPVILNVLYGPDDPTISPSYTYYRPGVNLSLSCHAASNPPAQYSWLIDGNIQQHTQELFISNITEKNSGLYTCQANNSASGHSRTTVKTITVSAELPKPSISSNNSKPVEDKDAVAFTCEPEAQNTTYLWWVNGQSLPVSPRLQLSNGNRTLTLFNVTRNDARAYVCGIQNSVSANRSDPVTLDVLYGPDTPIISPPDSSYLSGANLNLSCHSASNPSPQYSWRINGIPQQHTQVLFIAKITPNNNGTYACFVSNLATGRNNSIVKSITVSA
Experimental: The CEA ELISA using an anti CPG2 reporter antibody was essentially as above but instead of HRPO-labelled goat anti-human kappa antibody an 1/1000 dil. of a rabbit anti-CPG2 polyclonal sera was added, in 1% BSA in PBS-TWEEN™ and incubated at room temperature on a rocking platform for at 2 hours. The plate was washed three times with PBS-TWEEN™. A 1/2000 dilution of a goat anti-rabbit HRPO labelled antibody (Sigma A-6154) was then added and incubated at room temperature on a rocking platform for 1 hour, the plate was washed three times with PBS-TWEEN™ and once with PBS. To detect binding add 100 μl per well developing solution (one capsule of phosphate-citrate buffer—Sigma P4922—dissolved in 100 ml H2O to which is added one 30 mg tablet o-phenylenediamine dihydrochloride—Sigma P8412) and incubated for up to 15 minutes. The reaction was stopped by adding 75 μl 2M H2SO4, and absorbance read at 490 nm.

[2] = tested on: LoVo, CEA bearing, tumour cells; assay: In vitro cell killing assay: cell-bound fusion protein plus PGP prodrug, SRB stain; type: cell-based; conditions: unbound protein washed off, PGP 1 hr, 4 days proliferation
Experimental: An in vitro cell killing assay was performed in which the (A5B7-CPG2 R6)2 fusion protein was compared to a “conventional” A5B7 F(ab′)2-CPG2 conjugate formed through linking A5B7 F(ab′)2 to CPG2 with a chemical heterobifunctional reagent. […] The cells were then washed to remove unbound protein material and subsequently resuspended in medium containing a CPG2 phenol prodrug (PGP, see Example 2 below) for a period of 1 hr, after which the cells were washed, resuspended in fresh media and left to proliferate for 4 days. Finally the cells were treated with SRB stain and their numbers determined.

[3] = tested on: CEA positive LoVo parental line; assay: Cell based ELISA of secreted fusion protein, CEA positive cells; conditions: increasing amounts of added fusion protein, listed as (A5B7-CPG2)2 fusion protein
Experimental: Cells were seeded into 96 well plates (Becton Dickinson Biocoat™ poly-D-Lysine, 35-6461) at a density of 1×10^4 cells per well in 100 μl normal culture media and left about 40 h at 37°. 100 μl of 6% formaldehyde was diluted in DMEM and left for 1 hour at 4°. Plates were centrifuged and washed 3 times in PBS containing 0.05% Tween™ by immersion soaking (first two washes for 2 minutes and the final wash for 5 minutes).
100 μl of doubling dilutions of cell culture supernatant containing fusion protein or chimeric A5B7 anti-CEA were added to each well as appropriate and the plates incubated overnight at 4°. The plates were washed as described above and, in the case of chimaeric fusion proteins. 100 μl of 1:1000 dilution of HRP labelled anti-human kappa antibody (Sigma A-7164) was added and incubated for 2 hours at room temperature (an anti-CPG2 detection methodology can be used in the case of murine scFv fusion proteins). The plates were washed as described above and HRP detected using OPD substrate (Sigma P-8412). Colour was allowed to develop for about 5 min, stopped with 75 μl per well of 2M H2SO4 and OD read at 490 nm.
In the case of the (A5B7-CPG2)2 fusion protein, material was produced in the supernatant from recombinant Colo32ODM tumour cells (CEA-ve). The fusion protein content was measured by use of the CEA ELISAs described above. […]

[4] = tested on: recombinant LoVo tumour cells; assay: Retention of secreted fusion protein on recombinant LoVo cells (cell based ELISA); conditions: CEA positive, without added anti-CEA antibody, listed as (A5B7-CPG2)2 fusion protein
Experimental: The vertical axis represents optical density readings measured at 490 nm and the horizontal axis the amount of added anti-CEA antibody (IIE6) measured in ng/ml of protein. […] Firstly, the cell lines were fixed and washed to remove the existing supernatant and any unbound material after which increasing concentrations of the anti-CEA antibody (IIE6) were added to the fixed cells. The assay was developed as described in the text to determine the level of retention of any secreted material and whether further added antibody would increase the signal. […] Since the recombinant Colo320DM are CEA negative no increase in signal due to anti-CEA antibody the results for these cells would be expected. In the case of the recombinant LoVo cells the addition signal due the amounts of antibody added in this assay may be swamped except at the highest dose due to the relative strength of the original signal.
LoVo colorectal tumour cells transfected with the (A5B7-CPG2)2 fusion protein gene have been shown both to secrete and to retain the fusion protein on their cell surface. […] The recombinant LoVo cells still gave such a strong initial signal that the added antibody made little difference to the overall signal obtained, which was considerably higher than any of the control experiments.

[5] = Enzyme activity in plasma samples (methotrexate turnover, HPLC); type: in vivo; conditions: except when tumour enzyme activity exceeded 2.0 U/g
Experimental: To act as a standard for the assay, a CPG2 enzyme standard curve was prepared in 20% normal plasma to the following concentrations: 0.2, 0.4, 0.6, 0.8 and 1.0 U/ml. Similarly all test plasma samples were also diluted to 20% normal plasma. Further dilutions of these samples e.g. neat 1/10, 1/20 and 1/50 were also made using 20% normal serum. 200 μl aliquots of each CPG2 standard and test sample dilutions were equilibrated to 30°. 2 μl of 10 mM MTX was added to each of the tubes and mixed well. […]. The reaction was stopped after exactly 10 minutes (to increase the sensitivity of the assay the incubation time can be increased to 30 minutes) by adding 500 μl ice cold methanol+0.2% TFA and assayed for product using HPLC detection as described above in Example 10.

[6] = tested on: CPG2; conditions: COS-7 transient expression supernatant

B1: (A5B7 Fab-CPG2)2 fusion protein: chimaeric A5B7 anti-CEA Fab, heavy chain Fd linked via (G4S)3 linker to CPG2 R6, dimerised through CPG2 (antibody)
heavy: EVKLVESGGGLVQPGGSLRLSCATSGFTFTDYYMNWVRQPPGKALEWLGFIGNKANGYTTEYSASVKGRFTISRDKSQSILYLQMNTLRAEDSATYYCTRDRGLRFYFDYWGQGTTLTVSSASTKGPSVFPLAPCSRSTSESTAALGCLVKDYFPEPVTVSWNSGALTSGVHTFPAVLQSSGLYSLSSVVTVPSSNFGTQTYTCNVDHKPSNTKVDKTVGGGGSGGGGSGGGGSQKRDNVLFQAATDEQPAVIKTLEKLVNIETGTGDAEGIAAAGNFLEAELKNLGFTVTRSKSAGLVVGDNIVGKIKGRGGKNLLLMSHMDTVYLKGILAKAPFRVEGDKAYGPGIADDKGGNAVILHTLKLLKEYGVRDYGTITVLFNTDEEKGSFGSRDLIQEEAKLADYVLSFEPTSAGDEKLSLGTSGIAYVQVQITGKASHAGAAPELGVNALVEASDLVLRTMNIDDKAKNLRFQWTIAKAGQVSNIIPASATLNADVRYARNEDFDAAMKTLEERAQQKKLPEADVKVIVTRGRPAFNAGEGGKKLVDKAVAYYKEAGGTLGVEERTGGGTDAAYAALSGKPVIESLGLPGFGYHSDKAEYVDISAIPRRLYMAARLIMDLGAGK
light: QTVLSQSPAILSASPGEKVTMTCRASSSVTYIHWYQQKPGSSPKSWIYATSNLASGVPARFSGSGSGTSYSLTISRVEAEDAATYYCQHWSSKPPTFGGGTKLEIKRTVAAPSVFIFPPSDEQLKSGTASVVCLLNNFYPREAKVQWKVDNALQSGNSQESVTEQDSKDSTYSLSSTLTLSKADYEKHKVYACEVTHQGLSSPVTKSFNRGEC
Q: With B1 as the molecule, how does the “CEA binding detected with anti-CPG2 reporter antibody” value [1] read?
A: exhibited clear CEA binding

Q: What about the “cell kill with PGP prodrug compared with equivalent levels of A5B7 F(ab)2-CPG2 conjugate” value [2] of the same molecule?
A: at least equivalent cell kill

Q: What about the “binding to CEA positive cells (OD 490 nm)” value [3] of the same molecule?
A: increased levels of binding with increasing amounts of added fusion protein; also recorded: binds specifically to a CEA positive cell line in a dose dependant manner

Q: What about the “retention of expressed fusion protein on cell surface (OD 490 nm)” value [4] of the same molecule?
A: had retained the expressed fusion protein; also recorded: very strong OD 490 nm reading

Q: And the “enzyme activity in plasma” value [5]?
A: No activity was seen in the plasma

Q: What about the “CPG2 enzyme activity in cell supernatant” value [6] of the same molecule?
A: CPG2 enzyme activity to be present in the cell supernatant
